Results from patent US20250296971A1, “GASTRIC INHIBITORY PEPTIDE RECEPTOR LIGANDS” (priority 2021, published 2025).
*1 amine or outer side, *2 acyl side, *3 side chain or, on linkers, in order; H or OH if unused. Bridges are numbered along the chain shown (N, C = ends). Primed or numbered codes have the meaning given here. Where no end group is shown, it is not given here. [ ]: non-standard residue; d: D form. The star is where a group is joined. Ttds = 1,13-diamino-4,7,10-trioxatridecan-succinamic acid, NCCCOCCOCCOCCCNC(=O)CCC(=O)*; 2,6‑lutidylidene = 2Lut, Cys-Cys crosslink via 2,6-lutidylidene; dE(AGLU) = D-glutamic acid bearing 1-amino-1-deoxy-D-glucitol; MeO36PEG = monodisperse PEG 36 units conjugated with acetyl; Pro(trans-4-NH2) = O=C([C@@H]1C[C@@H](N[*:3])CN1[*:1])[*:2]; DOTA = O=C(O)CN1CCN(CC(=O)O)CCN(CC(=O)*)CCN(CC(=O)O)CC1; MeO2kDaPEGAc″ = methoxy polydisperse 2 kDa PEG acetyl; 2Lut = 2,6-lutidylidene bridge between two thiols; Trp(5-Cl) = N[C@@H](Cc1c[nH]c2ccc(Cl)cc12)C(=O)O; Phe(3,5-Cl2) = N[C@@H](Cc1cc(Cl)cc(Cl)c1)C(=O)O; Pyridine(2,6-diCH2) = c1cc(C[*:1])nc(C[*:2])c1; Trp(7-aza) = N[C@@H](Cc1c[nH]c2ncccc12)C(=O)O; 2Lut″ = 2,6-lutidylidene linking two thiols; APAc = 4-amino-1-carboxymethylpiperidine; Phe(2-Cl) = N[C@@H](Cc1ccccc1Cl)C(=O)O; Glutaryl = O=C(CCCC(=O)[*:2])[*:1]; AGLU = 1-amino-1-deoxy-D-glucitol; Hyp = O=C(O)[C@@H]1C[C@@H](O)CN1; Suc = O=C(CCC(=O)[*:2])[*:1]; 2Lut(3) = 2,6-lutidylidene; dDab = NCC[C@@H](N)C(=O)O; Api = NC1(C(=O)O)CCNCC1; Thp = NC1(C(=O)O)CCOCC1

What was measured:
[1] = target: human Gastric Inhibitory Peptide Receptor (human) (UniProt P48546); assay: FACS competition with GIP-057 on CHO-K1-hGIPR cells; pIC50 category B: 7.1-8.0
[2] = target: human Gastric Inhibitory Peptide Receptor (GIPR) (human) (UniProt P48546); assay: FACS competition vs biotinylated GIP-057 on CHO-K1-hGIPR cells; category B: pIC50 7.1-8.0
Chain of human Gastric Inhibitory Peptide Receptor (GIPR) (human) (P48546 22-466 limits assumed): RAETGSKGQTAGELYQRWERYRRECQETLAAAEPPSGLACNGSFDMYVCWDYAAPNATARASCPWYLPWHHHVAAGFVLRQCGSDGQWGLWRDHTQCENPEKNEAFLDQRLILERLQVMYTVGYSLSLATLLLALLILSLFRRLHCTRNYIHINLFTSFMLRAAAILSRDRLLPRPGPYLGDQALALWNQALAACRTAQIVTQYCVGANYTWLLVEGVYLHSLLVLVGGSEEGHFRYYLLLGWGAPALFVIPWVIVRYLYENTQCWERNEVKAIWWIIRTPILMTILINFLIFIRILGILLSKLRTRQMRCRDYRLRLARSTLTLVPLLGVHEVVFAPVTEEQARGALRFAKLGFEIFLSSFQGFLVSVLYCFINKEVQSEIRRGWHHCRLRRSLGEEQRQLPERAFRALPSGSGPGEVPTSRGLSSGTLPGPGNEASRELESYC

Chain of human Gastric Inhibitory Peptide Receptor (human) (P48546 22-466 limits assumed): as above

pIC50 [1] [pic50]	pIC50 [2] [pic50]	Molecule
7.1 to 8	–	DOTA-Ttds-Nmd-Trp-Trp-Pro-Glu-Leu-[Cys(3MeBn)-Aib-Leu-Ile-AET] (peptide)
–	7.1 to 8	Ac-Asp-Trp-5Clw-Hyp-Glu-leu-[Cys(2Lut)-Apc(DOTA)-Leu-Phe-Cys]-NH2 (peptide)
7.1 to 8	–	Suc-W[Trp(5-Cl)][Hyp]E[dL]C[Api](MeO2kDaPEGAc″)LIC-{APAc-Lys(DOTA)-NH2} (linker 6-10 via Pyridine(2,6-diCH2)) [HO-Succinyl-Trp-5Clw-Hyp-Glu-leu-[Cys(2Lut)-Apc(MeO2kDaPEGAc)-Leu-Ile-Cys]-APAc-Lys(DOTA)-NH2]
7.1 to 8	–	{AGLU-Glutaryl}-DW[Trp(5-Cl)][Pro(trans-4-NH2)]E[dL]C[dDab](DOTA)LIC-{APAc-dE(AGLU)-NH2} (linker 7-11 via 2,6‑lutidylidene) [AGLU-Glutar-Asp-Trp-5Clw-Tap-Glu-leu-[Cys(2Lut)-dab(DOTA)-Leu-Ile-Cys]-APAc-glu(AGLU)-NH2]
7.1 to 8	–	{MeO36PEG-APAc}-DW[Trp(5-Cl)][Hyp]E[dL]C[Api](DOTA)LIC-{APAc-dE(AGLU)-NH2} (linker 7-11 via Pyridine(2,6-diCH2)) [MeO36PEG-APAc-Asp-Trp-5Clw-Hyp-Glu-leu-[Cys(2Lut)-Apc(DOTA)-Leu-Ile-Cys]-APAc-glu(AGLU)-NH2]
–	7.1 to 8	Ac-D[Phe(2-Cl)][Trp(5-Cl)][Pro(trans-4-NH2)](DOTA)E[dL]C[Thp]LIC-NH2 (linker 7-11 via Pyridine(2,6-diCH2)) [Ac-Asp-Ocf-5Clw-Tap(DOTA)-Glu-leu-[Cys(2Lut)-Thp-Leu-Ile-Cys]-NH2]
–	7.1 to 8	{DOTA-Ttds}-DW[Phe(3,5-Cl2)][Hyp]E[dL]C[Thp]LIC-NH2 (linker 7-11 via Pyridine(2,6-diCH2)) [DOTA-Ttds-Asp-Trp-Egn-Hyp-Glu-leu-[Cys(2Lut)-Thp-Leu-Ile-Cys]-NH2]
7.1 to 8	–	Suc-W[Trp(5-Cl)][Hyp]E[dL]C[Thp]LIC (linker 6-10 via 2Lut; not fully specified (C-terminus); printed as HO-Succinyl-Trp-5Clw-Hyp-Glu-leu-[Cys(2Lut)-Thp-Leu-Ile-Cys]-APAc-lys(MeO2kDaPEGAc)-Lys(DOTA)-NH2) [HO-Succinyl-Trp-5Clw-Hyp-Glu-leu-[Cys(2Lut)-Thp-Leu-Ile-Cys]-APAc-lys(MeO2kDaPEGAc)-Lys(DOTA)-NH2]
–	7.1 to 8	{DOTA-Ttds}-DW[Trp(5-Cl)][Hyp]E[dL]C[Thp]LFC-NH2 (linker 7-11 via 2Lut(3)) [DOTA-Ttds-Asp-Trp-5Clw-Hyp-Glu-leu-[Cys(2Lut)-Thp-Leu-Phe-Cys]-NH2]
–	7.1 to 8	Ac-DW[Trp(5-Cl)][Hyp]F[dL]C[Thp]LIC-NH2 (linker 7-11 via Pyridine(2,6-diCH2)) [Ac-Asp-Trp-5Clw-Hyp-Phe-leu-[Cys(2Lut)-Thp-Leu-Ile-Cys]-NH2]
–	7.1 to 8	Ac-D[Phe(2-Cl)][Trp(5-Cl)][Hyp]E[dL]C[Api](DOTA)LIC-NH2 (linker 7-11 via Pyridine(2,6-diCH2)) [Ac-Asp-Ocf-5Clw-Hyp-Glu-leu-[Cys(2Lut)-Apc(DOTA)-Leu-Ile-Cys]-NH2]
7.1 to 8	–	{AGLU-Glutaryl}-DW[Trp(5-Cl)][Pro(trans-4-NH2)]E[dL][dC][Api](DOTA)LIC-{APAc-dE(AGLU)-NH2} (linker 7-11 via Pyridine(2,6-diCH2)) [AGLU-Glutar-Asp-Trp-5Clw-Tap-Glu-leu-[cys(2Lut)-Apc(DOTA)-Leu-Ile-Cys]-APAc-glu(AGLU)-NH2]
–	7.1 to 8	Ac-DW[Phe(3,5-Cl2)][Hyp]E[dL]C[Thp]LIC-NH2 (linker 7-11 via 2Lut″) [Ac-Asp-Trp-Egn-Hyp-Glu-leu-[Cys(2Lut)-Thp-Leu-Ile-Cys]-NH2]
7.1 to 8	–	{AGLU-Glutaryl}-DW[Trp(5-Cl)][Pro(trans-4-NH2)]E[dL]C[dK](DOTA)LIC-{APAc-dE(AGLU)-NH2} (linker 7-11 via Pyridine(2,6-diCH2)) [AGLU-Glutar-Asp-Trp-5Clw-Tap-Glu-leu-[Cys(2Lut)-lys(DOTA)-Leu-Ile-Cys]-APAc-glu(AGLU)-NH2]
–	7.1 to 8	Ac-DW[Trp(7-aza)][Hyp]E[dL]C[Thp]LIC-NH2 (linker 7-11 via 2Lut″) [Ac-Asp-Trp-7Nw-Hyp-Glu-leu-[Cys(2Lut)-Thp-Leu-Ile-Cys]-NH2]
7.1 to 8	–	{AGLU-Glutaryl}-DW[Trp(5-Cl)][Pro(trans-4-NH2)]E[dL][dC][Api](DOTA)LI[dC]-{APAc-dE(AGLU)-NH2} (linker 7-11 via Pyridine(2,6-diCH2)) [AGLU-Glutar-Asp-Trp-5Clw-Tap-Glu-leu-[cys(2Lut)-Apc(DOTA)-Leu-Ile-cys]-APAc-glu(AGLU)-NH2]
–	7.1 to 8	Ac-DW[Trp(5-Cl)][Hyp]E[dL]C[Thp]LFC-NH2 (linker 7-11 via Pyridine(2,6-diCH2); SMILES CC(=O)N[C@@H](CC(=O)O)C(=O)N[C@@H](Cc1c[nH]c2ccccc12)C(=O)N[C@@H](Cc1c[nH]c2ccc(Cl)cc12)C(=O)N1C[C@H](O)C[C@H]1C(=O)N[C@@H](CCC(=O)O)C(=O)N[C@H](CC(C)C)C(=O)N[C@H]1CSCc2cccc(n2)CSC[C@@H](C(N)=O)NC(=O)[C@H](Cc2ccccc2)NC(=O)[C@H](CC(C)C)NC(=O)C2(CCOCC2)NC1=O) [Ac-Asp-Trp-5Clw-Hyp-Glu-leu-[Cys(2Lut)-Thp-Leu-Phe-Cys]-NH2]
7.1 to 8	–	XWXXEXCXLIC (not fully specified; N-term AGLU-Glutar-APAc; Hse; 5Clw; Hyp; leu (D-Leu); thioether cycle [Cys(2Lut)..Cys]; Apc(DOTA-glu(AGLU)); C-term APAc-glu(AGLU)-NH2)
